Data reported in the nanobody polyreactivity screen of Harvey et al. (2022).

assay: yeast display, Sf9 membrane polyspecificity reagent, FACS + sequencing; frameworks hold sequencing errors
Summary of the method: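 Using colony PCR, genes from sorted yeast display clones were amplified, then sequenced on MiSeq at 2 × 250 and filtered by CDR length. The clones had been stained with 10% biotinylated, detergent-solubilized Sf9 membrane reagent for 1 hour at 4 °C and sorted by FACS into low and high (top ~1%) gates on anti-HA and streptavidin fluorescence. Polyreactivity labels come from the gate of origin.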

Q: With “QVQLVESGGGLLQAGGILRLSCAASGRTFGLYAMRWYRQAPGKERELVAAIRGSAGSTYYADSVKGRFTISRDNAKNTVYLQMNSLKPEDTAVYYCATVGYPSLWYGYGYWGQGTQVTVSS” as the sequence, how does the “polyreactivity (PSR sort gate)” value read?
A: low polyreactivity

Q: Which “polyreactivity (PSR sort gate)” value does the source give for “QVQLVESGGGLLQAGGRLRLSCAASGGIFQGYAMGWYRQAPGKERELVAAISRSGGRTYYADSVKGRFTISRDNAKNTVYLQMNSLKPEDTAVYYCAKSQSAKGGYDYWGQATQVTVSS” here?
A: high polyreactivity

Q: Which “polyreactivity (PSR sort gate)” value does the source give for “QVQLVESGGGLLQAGGSLLLSCAASGSIFDTNAMGWYRQAPGTERELVAAISWSDTSTYADSVKGRFTISRDNAKNTVYLQMNSLKPEDTAVYYCATDTRSQAYYYWGQGTQVNVSS” here?
A: low polyreactivity

Q: For “QVQLVESGGGLLQAGGSLRLICAASGFIVRRYAMGWYRQAPGKARELVAAITSGGSTYYADSVKGRFTISRDNAQYTVYLQFNSMKPVDTADYYCNAYFTGKWYDYWGQGTQVTVSS”, which “polyreactivity (PSR sort gate)” value is on record?
A: high polyreactivity

Q: With “QVQLVESGGGLLQAGGSLRLSCAASGFTFSYYAKGWYRQAPGKERELVAVISDRGGITYYADSVKGRFTISRDNAKNTVYLQMNSVKPEDTAVYYCAADLDSWYGYYYIVEYWGQGTQVTVSS” as the sequence, how does the “polyreactivity (PSR sort gate)” value read?
A: low polyreactivity

Q: With “QVQLVESGGGLLQAGGSLRLSCAASGFTIKYYAMGWYRPAPGKERELVAAIRGSGAGTYYADSVKGRFTISRDNAKNTVYLQMNSLKPEDTAVYYCNKRWTYQWDDYWGQGTQVTVSS” as the sequence, how does the “polyreactivity (PSR sort gate)” value read?
A: high polyreactivity

Q: With “QVQLVESGGGLLQAGGSLRLSCAASGIIFFKYAMGWYRQAPGKERELVAAINRSGGSTYYADSVKGRFTISRDNAKNSVSLQMNSLKPEDTAVYYCNARLTLRSYDYWGQGTQVTVSS” as the sequence, how does the “polyreactivity (PSR sort gate)” value read?
A: low polyreactivity

Q: For “QVQLVESGGGLLQAGGSLRLSCAASGIIFRWYAMGWYSQAPGKERELVATITRSGGSTYYADSVKGRFTISRDNAKKTVYLLMKSLKPEDTAVFYCATGRYPSGRPTRNYDSVYWGHGTQVTVSS”, which “polyreactivity (PSR sort gate)” value is on record?
A: high polyreactivity

Q: Which “polyreactivity (PSR sort gate)” value does the source give for “QVQLVESGGGLLQAGGSLRLSCAASGITFLGYAMGWYRQATWKERELVAAISISGDTYYADSEKGRFTISRDNAKNTVYLQMNSLKPEDTAVYYCAAVQSYAGFEYGYWGQGTQVTVSS” here?
A: high polyreactivity

Q: With “QVQLVESGGGLLQAGGSLRLSCAASGITFRRNTMGWYREAPGKVRELVATISWRGGNTFYADSVKGRCTISRDNAKNTVYLQMNSRKPEDTAVYYCAAYSPYITRPGYAPYGYWGQATQVTVSS” as the sequence, how does the “polyreactivity (PSR sort gate)” value read?
A: high polyreactivity

Q: For “QVQLVESGGGLLQAGGSLRLSCAASGITLSYYVMGWYRQAPGKERELVAAINQSGSRTYYADSVKGRFTISRDNPKNSVYLQMNSLKPEDTAVYYCAGVFSYQPTSGYGYWGQGTQVTVSS”, which “polyreactivity (PSR sort gate)” value is on record?
A: high polyreactivity

Q: For “QVQLVESGGGLLQAGGSLRLSCAASGLIFGYYAMGWYRQAPGKERELVGAITSSGTSTYYADSVKGRFTISRDNAKNTVYLQMNSLKPEDTAVYYCAAQYIGKKRFNYWGQGTQVTVSS”, which “polyreactivity (PSR sort gate)” value is on record?
A: high polyreactivity

Q: With “QVQLVESGGGLLQAGGSLRLSCAASGNIFTYYAMGWYRQAPGKERDLVAAIRWRSGSTYYADSVKGRFTISRDNAKNTVYLQMNSLKPEDTAVYYCADDGTPYEYDYWGQGTQVTVSS” as the sequence, how does the “polyreactivity (PSR sort gate)” value read?
A: low polyreactivity

Q: Which “polyreactivity (PSR sort gate)” value does the source give for “QVQLVESGGGLLQAGGSLRLSCAASGRIFGSYAMGWYRPAPGKERELVAAINWRGGSTFYADSVKGRFTISRDNAKNTVYLQMNSLKPEDTAVYYCARRGYRQSGDYWGQGSQVTVSS” here?
A: low polyreactivity

Q: With “QVQLVESGGGLLQAGGSLRLSCAASGRIFRYYAMVWYIQAPVKERELVAGISWTGGTTYYADSVNGRFTISLDNAKNSVYLQMYSLKPEDSAVDYCIVRRSTLYDYWGQGTQVTVSS” as the sequence, how does the “polyreactivity (PSR sort gate)” value read?
A: high polyreactivity

Q: For “QVQLVESGGGLLQAGGSLRLSCAASGRNFRLYPMGWYRQAPGTERDFLAAITFSGGRTYYADSVKGRFTISRDNAKNTVYLQMKSLKPEDTAVYYCAARGQTGYYSGVGYWGLGTQVTVSS”, which “polyreactivity (PSR sort gate)” value is on record?
A: high polyreactivity

Q: With “QVQLVESGGGLLQAGGSLRLSCAASGRNFRYYAMGWYRQAPRKERELVAAITRGGRTNYADSVKGRFTISRDNAKNTVYLQMNSLKPEDSAVYYCAADYTKYYRRYYYWGQGTQVTVSS” as the sequence, how does the “polyreactivity (PSR sort gate)” value read?
A: high polyreactivity

Q: Which “polyreactivity (PSR sort gate)” value does the source give for “QVQLVESGGGLLQAGGSLRLSCAASGRTFGYYAMGWYRQAPGKERELVAAISKSGGRTYYADSVKGRFTISRDNAKNTVYLQMNSLKPEDTAVYYCAADGGAIVPYYENYYWGQGTQVTVSS” here?
A: high polyreactivity

Q: With “QVQLVESGGGLLQAGGSLRLSCAASGRTFYRYAMGWYRQAPGKERELVAAITWSGGSTYYADSVKGRFTTSRDNAKNTVYLQMNSLKPEDTAVYYCARRLYPYRPTAYDYWGQGTQVTVSS” as the sequence, how does the “polyreactivity (PSR sort gate)” value read?
A: low polyreactivity

Q: Which “polyreactivity (PSR sort gate)” value does the source give for “QVQLVESGGGLLQAGGSLRLSCAASGSIFGGNAMGWYRQAPGKEREFVAAITVSDGSTYYADSVKGRFTISRDNAKNTVYLQMNSLKPEDTAVYYCAAGGFYYPHYDYWGQGSQVTVSS” here?
A: low polyreactivity

Q: With “QVQLVESGGGLLQAGGSLRLSCAASGSIFGYNAMGWYRQAPGKERELVAAISYSGGSTYYADSVKGRFPISRDNAKNTVYLQMNSLKPEDTAVYYCAKAGRYANLPYGYWGQGTQVTVSS” as the sequence, how does the “polyreactivity (PSR sort gate)” value read?
A: high polyreactivity

Q: With “QVQLVESGGGLLQAGGSLRLSCAASGSIFSYYVMGWYRQAPGKERELVAAISSSGGSTYYADSVKGRFTISRDNEKNTVYLQMNSLKPEDTAVYYCAAQHYVRSSIPGFIYYYWGQGTQVTVSS” as the sequence, how does the “polyreactivity (PSR sort gate)” value read?
A: high polyreactivity

Q: For “QVQLVESGGGLLQAGGSLRLSCAASGSIFTHNAMGWYRQAPGKERELVAAISSGGSTNYADSVKGRFTISRDNAKNTVYLHMNSLKPEDTAVYYCAATDQKLSLDYSSYEYWGQGTQVTVSS”, which “polyreactivity (PSR sort gate)” value is on record?
A: low polyreactivity

Q: Which “polyreactivity (PSR sort gate)” value does the source give for “QVQLVESGGGLLQAGGSLRLSCAASGSIFTSNAMGWYRQAPGKERELVAAITRGGNTNYADSVKGRFTISRDNAKNTVYLQMNSLKPEDTAVYYCATEGFVYSWLWEFEYWGQGTQVTVSS” here?
A: low polyreactivity

Q: Which “polyreactivity (PSR sort gate)” value does the source give for “QVQLVESGGGLLQAGGSLRLSCAASGSIFYGYAMGWYRQAPGKERELVAAITRGGGTYYADSVKGRFTNSRDNAKITVYLQMNSLKPEDTAVYYCALSFYRRYTPYDYWGQGTQLTVSS” here?
A: high polyreactivity

Q: Which “polyreactivity (PSR sort gate)” value does the source give for “QVQLVESGGGLLQAGGSLRLSCAASGSNFVAYAMGRYRQAPGKERELVAAITYSGGGTYYADSVKGRCTISRDNAKNTVYLLMNSLKPEDTALYYCNAVGGIYDFDYCGQGTQVTVSS” here?
A: high polyreactivity

Q: For “QVQLVESGGGLLQAGGSLRLSCAASGSTFGFYALGWFRQAPGKERELVAAISSGGTSTYYADSVKGRFTISRDNAKTTVYLQMNSVIPEDTAVYYCNSDTFQYPSTYDYWGQGTQVTVSS”, which “polyreactivity (PSR sort gate)” value is on record?
A: low polyreactivity

Q: With “QVQLVESGGGLLQAGGSLRLSCAASGSTFSRYTMGWYRQAPGKERELVAAISYRGGSTYYADSVKGRFTISRDNAKNTVYLQMNSLKPEDTAVYYCAAEFRVEGSDYDYWGQGTQVTVSS” as the sequence, how does the “polyreactivity (PSR sort gate)” value read?
A: low polyreactivity

Q: With “QVQLVESGGGLLQAGGSLRLSCAASGSTFYFYARGWYRQAPGKERELVAAITGSGGSTYYAVYVKGRFTISRDNSRNSVYLQMKSVKPEDTAVYYCAAGWWYYVHMDYWGQGTQVTVSS” as the sequence, how does the “polyreactivity (PSR sort gate)” value read?
A: high polyreactivity

Q: Which “polyreactivity (PSR sort gate)” value does the source give for “QVQLVESGGGLLQAGGSLRLSCAASGYIFQYYAMGWYRQAPGKERELVAAITGGGSTKYADSVKGRFTISRDNAKNTVYLQMNSLKPEDTAVYYCAASLWYRISKYDYWGQGTQVTVSS” here?
A: high polyreactivity

Q: Which “polyreactivity (PSR sort gate)” value does the source give for “QVQLVESGGGLLQAGGSLRLSCASSGRTFKANAMVWYRQAPGKERELVAAISYSGGNTYYADSVKGRFTISRDNANNTVYLQMNSLKPEDTAVYYCARYYYLPVVDMDYWGQGTQVTVSS” here?
A: high polyreactivity

Q: With “QVQLVESGGGLLQAGGSLRLSCSATGSLFEGNGMGWYRQAPGKERELVASITRSGGSTYYADSVKGRFTISRDNAKNTVYLQINSLIPEDTAVYYCAAYPVRYYNQYDYWGLGTQVTVSS” as the sequence, how does the “polyreactivity (PSR sort gate)” value read?
A: low polyreactivity
